According to patent publication US20220162261A1 (published 2022):
Where two headings read alike, the source gives them in different places. Numbered stars: 1 amine (or outer) side, 2 acyl side, 3 side chain; on linkers, the order of the positions; unused ones are H or OH. Bridge positions count the residues as written; N and C are the ends. Square brackets hold non-standard residues; d marks the D form. Glu(OMe) = L-glutamic acid gamma-methyl ester, COC(=O)CC[C@H](N[*:1])C(=O)[*:2]; Phe(4-COOH) = N[C@@H](Cc1ccc(C(=O)O)cc1)C(=O)O; Phe(4-tBu) = CC(C)(C)c1ccc(C[C@H](N)C(=O)O)cc1; NMeR = CN[C@@H](CCCNC(=N)N)C(=O)O; β3hE = N[C@@H](CCC(=O)O)CC(=O)O; NMeK = CN[C@@H](CCCCN)C(=O)O; Pen = CC(C)(S)[C@H](N)C(=O)O

Columns and labels:
[1] = molecular target: T1, human α4β7 integrin on cells (human, UniProt P13612 34-1032; P26010 20-798); test: RPMI8866 cell adhesion to MAdCAM-1
T1 construct: whole, on cells; also called α4β7 cell (Hu); RPMI8866 cells

[2] = molecular target: T1, human α4β7 integrin on cells; test: PBMC memory T cell adhesion
[3] = molecular target: T2, mouse α4β7 integrin on TK1 cells (mouse, UniProt Q00651 41-1039; P26011 20-806); test: TK1 cell adhesion to MAdCAM-1
T2 construct: whole, on cells; also called α4β7 cell (Mu); Cell Adhesion α4β7 Mouse

[4] = molecular target: T3, rh integrin α4β7 (R&D Systems #5397-A30) (human, UniProt P13612 34-970; P26010 20-723); test: competition ELISA vs MAdCAM-1
T3 construct: bought; coated on a nickel coated plate; also called immobilized α4β7; immobilized α4β7 integrin protein

[5] = molecular target: T3, rh integrin α4β7 (R&D Systems #5397-A30); test: competition ELISA vs MAdCAM-1; remark: listed apart in the source
[6] = molecular target: T1, human α4β7 integrin on cells; test: RPMI8866 cell adhesion to MAdCAM-1; remark: listed apart in the source
[7] = molecular target: T4, α4β1 (R&D Systems #5668-A4) (UniProt P13612 34-970; P05556 21-728, limits assumed); test: competition ELISA vs VCAM-1
T4 construct: bought; also called soluble α4β1

[8] = molecular target: T5, human α4β1 integrin on cells (human, UniProt P13612 34-1032; P05556 21-798); test: Jurkat cell adhesion to VCAM-1
T5 construct: whole, on cells; also called α4β1 cell; Jurkat cells

T2 sequence (Q00651 41-1039, chain 1 of 2): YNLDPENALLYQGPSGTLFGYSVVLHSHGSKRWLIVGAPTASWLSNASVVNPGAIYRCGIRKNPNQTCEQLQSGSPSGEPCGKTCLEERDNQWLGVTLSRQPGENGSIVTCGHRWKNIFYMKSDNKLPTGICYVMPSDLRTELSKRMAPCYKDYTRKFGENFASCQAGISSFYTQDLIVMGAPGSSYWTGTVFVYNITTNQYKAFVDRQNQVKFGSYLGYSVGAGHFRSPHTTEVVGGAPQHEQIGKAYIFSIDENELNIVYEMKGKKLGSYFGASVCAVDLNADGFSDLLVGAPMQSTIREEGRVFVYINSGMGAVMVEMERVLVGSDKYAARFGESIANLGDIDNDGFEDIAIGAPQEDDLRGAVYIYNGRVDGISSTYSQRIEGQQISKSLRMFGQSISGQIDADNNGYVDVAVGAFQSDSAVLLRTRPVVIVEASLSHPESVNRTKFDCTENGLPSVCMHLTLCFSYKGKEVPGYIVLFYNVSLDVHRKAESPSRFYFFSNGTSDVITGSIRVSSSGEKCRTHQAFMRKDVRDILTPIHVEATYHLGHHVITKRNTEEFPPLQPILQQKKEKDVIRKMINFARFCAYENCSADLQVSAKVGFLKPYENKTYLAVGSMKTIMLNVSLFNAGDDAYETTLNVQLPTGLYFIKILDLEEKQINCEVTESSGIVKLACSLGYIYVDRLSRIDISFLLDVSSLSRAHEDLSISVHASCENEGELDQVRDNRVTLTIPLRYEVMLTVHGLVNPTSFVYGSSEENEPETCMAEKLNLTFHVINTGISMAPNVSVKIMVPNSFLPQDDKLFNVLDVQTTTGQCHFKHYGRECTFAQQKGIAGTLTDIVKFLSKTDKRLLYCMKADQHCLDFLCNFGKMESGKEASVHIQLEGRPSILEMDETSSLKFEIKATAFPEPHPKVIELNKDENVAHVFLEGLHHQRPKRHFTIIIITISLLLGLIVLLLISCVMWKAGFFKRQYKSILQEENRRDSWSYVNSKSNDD
T2 sequence (P26011 20-806, chain 2 of 2): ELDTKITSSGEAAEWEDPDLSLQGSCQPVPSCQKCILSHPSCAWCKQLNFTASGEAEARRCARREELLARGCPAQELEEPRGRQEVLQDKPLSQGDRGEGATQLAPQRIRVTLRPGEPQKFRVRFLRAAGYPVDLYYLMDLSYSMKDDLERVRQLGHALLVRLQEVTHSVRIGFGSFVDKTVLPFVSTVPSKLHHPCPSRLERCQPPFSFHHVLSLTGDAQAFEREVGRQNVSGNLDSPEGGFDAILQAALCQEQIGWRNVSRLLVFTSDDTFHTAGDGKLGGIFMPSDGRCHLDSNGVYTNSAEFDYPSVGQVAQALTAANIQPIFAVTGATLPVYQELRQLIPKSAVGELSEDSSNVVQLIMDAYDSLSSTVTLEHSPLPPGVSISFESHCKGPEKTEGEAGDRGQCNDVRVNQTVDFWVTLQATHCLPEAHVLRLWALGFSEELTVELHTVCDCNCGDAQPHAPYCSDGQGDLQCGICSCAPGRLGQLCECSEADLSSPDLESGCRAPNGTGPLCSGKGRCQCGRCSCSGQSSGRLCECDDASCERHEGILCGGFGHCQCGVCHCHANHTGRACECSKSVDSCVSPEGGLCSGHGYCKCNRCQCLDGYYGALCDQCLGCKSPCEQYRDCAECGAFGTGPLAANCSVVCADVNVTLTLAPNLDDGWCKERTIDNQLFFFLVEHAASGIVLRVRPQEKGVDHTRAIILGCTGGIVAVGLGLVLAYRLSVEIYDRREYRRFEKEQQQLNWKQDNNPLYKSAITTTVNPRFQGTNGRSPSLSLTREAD

B1: SEQ ID NO: 147 (peptide)
peptide: Ac-[Pen][NMeR]SDTL[Pen][Phe(4-COOH)]E[NMeK]-NH2
modifications: disulfide 1-7; not fully specified (residue 10); printed as (Ac Pen N-Me-R S D T L Pen F(4-COOH) E N-Me-K NH2)2 DIG, disulfide Pen-Pen; also: homodimer (…)2 DIG via Lys10 NZ
IC50 [1]: ≤ 10 nM
IC50 [2]: ≤ 10 nM
IC50 [3]: ≤ 10 nM
IC50 [4]: ≤ 10 nM

B2: SEQ ID NO: 148 (peptide)
peptide: Ac-[Pen][NMeR]SDTL[Pen][Phe(4-COOH)][β3hE][NMeK]-NH2
modifications: disulfide 1-7; not fully specified (residue 10); printed as (Ac Pen N-Me-R S D T L Pen F(4-COOH) b-H-E N-Me-K NH2)2 DIG, disulfide Pen-Pen; also: homodimer (…)2 DIG via Lys10 NZ
IC50 [1]: ≤ 10 nM
IC50 [3]: ≤ 10 nM
IC50 [4]: ≤ 10 nM

B3: SEQ ID NO: 86 (peptide)
peptide: Ac-[Pen][NMeR]SDTL[Pen]W[Glu(OMe)][dK]-NH2
modifications: disulfide 1-7; not fully specified (residue 10); printed as (Ac Pen N-Me-R S D T L Pen W E(OMe) k NH2)2 DIG, disulfide Pen-Pen; also: homodimer: two subunits linked by DIG via D-Lys10 side chain
IC50 [1]: ≤ 10 nM
IC50 [3]: ≤ 10 nM

B4: SEQ ID NO: 165 (peptide)
peptide: Ac-[Pen][NMeR]SDTL[Pen][Phe(4-tBu)][β3hE]-NH2
modifications: disulfide 1-7
SMILES: CC(=O)N[C@@H]1C(=O)N(C)[C@@H](CCCNC(=N)N)C(=O)N[C@@H](CO)C(=O)N[C@@H](CC(=O)O)C(=O)N[C@@H]([C@@H](C)O)C(=O)N[C@@H](CC(C)C)C(=O)N[C@H](C(=O)N[C@@H](Cc2ccc(C(C)(C)C)cc2)C(=O)N[C@@H](CCC(=O)O)CC(N)=O)C(C)(C)SSC1(C)C
IC50 [1]: > 10 nM
IC50 [2]: > 100 nM

B5: SEQ ID NO: 208 (peptide)
peptide: XRSDTLXWK
modifications: Ac Pen N-Me-R S D T L Pen W k NH2; disulfide Pen-Pen
notes: also called peptide 208
IC50 [5]: 30.5 nM
IC50 [6]: 412 nM

B6: SEQ ID NO: 200 (peptide)
peptide: Ac-C[NMeR]SDTLCK-OH
modifications: disulfide 1-7 (inferred); also: dimer linked by PEG25, attachment not given here
notes: also called peptide 200
IC50 [7]: 16700 nM
IC50 [5]: 3 nM
IC50 [8]: > 100000 nM
IC50 [6]: 96 nM

B7: SEQ ID NO: 129 (peptide)
peptide: Ac-[Pen][NMeR]SDTL[Pen][Phe(4-COOH)]E[dK]-NH2
modifications: disulfide 1-7; not fully specified (residue 10); printed as (Ac Pen N-Me-R S D T L Pen F(4-COOH) E k NH2)2 DIG, disulfide Pen-Pen; also: homodimer: two subunits joined by DIG linker
IC50 [1]: ≤ 10 nM
IC50 [2]: ≤ 10 nM
IC50 [4]: ≤ 10 nM

B8: SEQ ID NO: 130 (peptide)
peptide: Ac-[Pen][NMeR]SDTL[Pen][Phe(4-COOH)][β3hE][dK]-NH2
modifications: disulfide 1-7; not fully specified (residue 10); printed as (Ac Pen N-Me-R S D T L Pen F(4-COOH) b-H-E k NH2)2 DIG, disulfide Pen-Pen; also: homodimer, two subunits joined by DIG linker
IC50 [1]: ≤ 10 nM
IC50 [2]: ≤ 10 nM
IC50 [4]: ≤ 10 nM

B9: SEQ ID NO: 133 (peptide)
peptide: Ac-[Pen][NMeR]SDTL[Pen][Phe(4-tBu)]E[NMeK]-NH2
modifications: disulfide 1-7; not fully specified (residue 10); printed as (Ac Pen N-Me-R S D T L Pen F(4tBu) E N-Me-K NH2)2 DIG, disulfide Pen-Pen; also: homodimer, two subunits joined by DIG linker
IC50 [2]: ≤ 10 nM
IC50 [4]: ≤ 10 nM

B10: SEQ ID NO: 166 (peptide)
peptide: Ac-[Pen][NMeR]SDTL[Pen][Phe(4-tBu)][β3hE][dK]-NH2
modifications: disulfide 1-7; not fully specified (residue 10); printed as (Ac Pen N-Me-R S D T L Pen F(4-tBu) b-H-E k NH2)2 IDA, disulfide Pen-Pen; also: homodimer (…)2 IDA via D-Lys10 NZ
IC50 [1]: ≤ 10 nM
IC50 [2]: ≤ 10 nM

B11: SEQ ID NO: 167 (peptide)
peptide: Ac-[Pen][NMeR]SDTL[Pen][Phe(4-tBu)][β3hE][dK]-NH2
modifications: disulfide 1-7; not fully specified (residue 10); printed as (Ac Pen N-Me-R S D T L Pen F(4-tBu) b-H-E k NH2)2 IDA PEG4 Biotin, disulfide Pen-Pen; also: homodimer (…)2 IDA PEG4 Biotin via D-Lys10 NZ
IC50 [1]: ≤ 10 nM
IC50 [2]: ≤ 10 nM

B12: SEQ ID NO: 168 (peptide)
peptide: Ac-[Pen][NMeR]SDTL[Pen][Phe(4-tBu)][β3hE][dK]-OH
modifications: disulfide 1-7; not fully specified (residue 10); printed as (Ac Pen N-Me-R S D T L Pen F(4tBu) b-H-E k OH)2 DIG, disulfide Pen-Pen; also: homodimer (…)2 DIG via D-Lys10 NZ
IC50 [1]: ≤ 10 nM
IC50 [2]: ≤ 10 nM

B13: SEQ ID NO: 202 (peptide)
peptide: Ac-C[NMeR]SDTL[Pen][dK]-NH2
modifications: disulfide 1-7
SMILES: CC(=O)N[C@H]1CSSC(C)(C)[C@@H](C(=O)N[C@H](CCCCN)C(N)=O)NC(=O)[C@H](CC(C)C)NC(=O)[C@H]([C@@H](C)O)NC(=O)[C@H](CC(=O)O)NC(=O)[C@H](CO)NC(=O)[C@H](CCCNC(=N)N)N(C)C1=O
IC50 [7]: 1620 nM
IC50 [5]: 87 nM
IC50 [8]: > 100000 nM
IC50 [6]: 11000 nM

B14: SEQ ID NO: 194 (peptide)
peptide: Ac-CRSDTLCGE-NH2
modifications: disulfide 1-7 (inferred)
notes: also called peptide 194
IC50 [7]: 2020 nM
IC50 [5]: 97 nM
IC50 [6]: 590 nM

B15: SEQ ID NO: 195 (peptide)
peptide: Ac-CRSDTLC-NH2
modifications: disulfide 1-7 (inferred)
notes: also called peptide 195
IC50 [7]: 2880 nM
IC50 [5]: 97 nM
IC50 [6]: 1220 nM

B16: SEQ ID NO: 196 (peptide)
peptide: Ac-CRSDTLCGEK-NH2
modifications: disulfide 1-7 (inferred)
notes: also called peptide 196
IC50 [7]: 4810 nM
IC50 [5]: 87 nM
IC50 [8]: > 100000 nM
IC50 [6]: 6660 nM

B17: SEQ ID NO: 197 (peptide)
peptide: Ac-CRSDTLCGEK-NH2
modifications: disulfide 1-7 (inferred); also: dimer linked by PEG25, attachment not given here
notes: also called peptide 197
IC50 [7]: 964 nM
IC50 [5]: 36 nM
IC50 [8]: > 100000 nM
IC50 [6]: 301 nM

B18: SEQ ID NO: 198 (peptide)
peptide: Ac-C[NMeR]SDTLCGE-NH2
modifications: disulfide 1-7 (inferred)
notes: also called peptide 198
IC50 [7]: 1290 nM
IC50 [5]: 20 nM
IC50 [8]: > 100000 nM
IC50 [6]: 1120 nM

B19: SEQ ID NO: 199 (peptide)
peptide: Ac-C[NMeR]SDTLCGEK-OH
modifications: disulfide 1-7 (inferred)
notes: also called peptide 199
IC50 [7]: > 100000 nM
IC50 [5]: 58 nM
IC50 [6]: 4690 nM

B20: SEQ ID NO: 201 (peptide)
peptide: Ac-C[NMeR]SDTLCGEK-OH
modifications: disulfide 1-7 (inferred); also: dimer linked by DIG, attachment not given here
notes: also called peptide 201
IC50 [7]: 1240 nM
IC50 [5]: 1 nM
IC50 [6]: 28 nM

B21: SEQ ID NO: 205 (peptide)
peptide: Ac-C[NMeR]SDTL[Pen]E[dK]-NH2
modifications: disulfide 1-7; also: homodimer via DIG linker on D-Lys9 side chains
notes: also called peptide 205
IC50 [7]: 444 nM
IC50 [5]: 2.4 nM
IC50 [6]: 26 nM

B22: SEQ ID NO: 207 (peptide)
peptide: Ac-[Pen]RSDTLC[dK]-NH2
modifications: disulfide 1-7; also: homodimer via DIG linker on D-Lys8 side chains
notes: also called peptide 207
IC50 [5]: 26 nM
IC50 [6]: 49 nM
